The supplement of paper PMC10126150
± gives the standard deviation of the averaged measurements.

Test system: ATP
Experiment: switch fluorescence ratio, 500 uM ATP over buffer (Cy3 cluster intensity, sum of 5 cycles each) (fold (ratio)); higher = stronger signal-on switching upon ATP binding; sequences stand for … in TCGTCGGCAGCGTCAGATGTGTATAAGAGACAGTTTTTTTTTTTTTTTTTTTTTTTTT…TC
Details: aptamer strand: ATP DNA aptamer (quencher-CACCTGGGGGAGTATTGCGGAGGAAGG + anchor), 100 nM annealed; ATP concentration: 500 uM
How it was run: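 Cy3-labelled switching-strand clusters on a modified Illumina MiSeq flow-cell were annealed to 100 nM quencher-labelled ATP aptamer and imaged first in selection buffer, then after 15 min with 500 uM ATP at 22 °C. NaOH stripping and re-annealing separated each of five buffer/ATP cycles, and clusters outside 100-1000 RFU were excluded. The fluorescence ratio sums target-cycle Cy3 intensity over buffer-cycle Cy3 intensity per cluster and averages it per switch-domain sequence.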
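Also: ATP exposure 15 min at 22 °C before imaging.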

| Sequence | switch fluorescence ratio |
| --- | --- |
| ACGGGTGGCG | 0.95 ± 0.11 |
| ACGGGTTCCA | 1.08 ± 0.13 |
| ACGGGTTCGT | 1.01 ± 0.012 |
| ACGGTAACGT | 1.02 ± 0.0058 |
| ACGGTAGGGC | 1.03 ± 0.013 |
| ACGGTATTGG | 1.09 ± 0.044 |
| ACGGTCAGTC | 1.05 ± 0.077 |
| ACGGTCCTTT | 0.973 ± 0.038 |
| ACGGTCGACT | 1.05 ± 0.057 |
| ACGGTGTTGG | 1.02 ± 0.021 |
| ACGGTTCCTG | 1.001 ± 0.0061 |
| ACGGTTGGT | 1.02 ± 0.012 |
| ACGGTTGTAC | 1.1813 ± 0.001 |
| ACGGTTGTGG | 1.01 ± 0.026 |
| ACGGTTTTCA | 0.977 ± 0.011 |
| ACGTAATTGT | 1.13 ± 0.061 |
| ACGTAATTTT | 1.17 ± 0.03 |
| ACGTAGAAAT | 1.35 ± 0.022 |
| ACGTAGTTTG | 1.04 ± 0.033 |
| ACGTATTTTG | 1.08 ± 0.045 |
| ACGTCTGAGG | 1.02 ± 0.029 |
| ACGTGCAGTT | 1.02 ± 0.012 |
| ACGTGCCGCA | 1.079 ± 0.0088 |

| Sequence | switch fluorescence ratio |
| --- | --- |
| ACGTGCTCGT | 0.991 ± 0.041 |
| ACGTGGGGCT | 1.05 ± 0.027 |
| ACGTGTAGGA | 1.0005 ± 0.00069 |
| ACGTGTAGGG | 1 ± 0.025 |
| ACGTGTCGGT | 1.028 ± 0.0037 |
| ACGTGTGGGG | 1.05 ± 0.034 |
| ACGTGTTCAT | 0.983 ± 0.018 |
| ACGTTATTTA | 1.1534 ± 0.0011 |
| ACGTTCGCGG | 0.985 ± 0.028 |
| ACGTTCGTTG | 0.9908 ± 0.0096 |
| ACGTTCTGTT | 1.02 ± 0.023 |
| ACGTTTGTTT | 0.971 ± 0.049 |
| ACTAAACGAG | 1.062 ± 0.0078 |
| ACTACTGGCT | 1.047 ± 0.0089 |
| ACTACTGGGA | 0.976 ± 0.041 |
| ACTACTTTCG | 1.03 ± 0.034 |
| ACTAGAGCGA | 1.11 ± 0.11 |
| ACTAGAGGAC | 1 ± 0.04 |
| ACTAGATACG | 1.04 ± 0.018 |
| ACTAGCGGCG | 1.05 ± 0.024 |
| ACTAGGAATC | 1.04 ± 0.019 |
| ACTAGGCAAG | 1.13 ± 0.018 |
| ACTAGTGTCA | 1 ± 0.04 |

| Sequence | switch fluorescence ratio |
| --- | --- |
| ACTATAGTGT | 1.02 ± 0.022 |
| ACTATGCGGG | 0.982 ± 0.017 |
| ACTATGGCTG | 0.957 ± 0.045 |
| ACTATGGTTA | 0.997 ± 0.055 |
| ACTATTACGG | 1.18 ± 0.0094 |
| ACTCACTGGT | 1.23 ± 0.043 |
| ACTCATGTAA | 1.03 ± 0.015 |
| ACTCATGTT | 0.996 ± 0.012 |
| ACTCATTTGG | 1.001 ± 0.0087 |
| ACTCCATACA | 1.21 ± 0.04 |
| ACTCCCGAAT | 1.865 ± 0.0096 |
| ACTCGACAGG | 1.8 ± 0.013 |
| ACTCGAGGAT | 1.03 ± 0.013 |
| ACTCGCTGGG | 1.11 ± 0.018 |
| ACTCGTGTAG | 1.04 ± 0.022 |
| ACTCTGGGAG | 1.03 ± 0.022 |
| ACTCTGGGGT | 1.03 ± 0.015 |
| ACTCTGGTAA | 1.065 ± 0.0032 |
| ACTCTTATCG | 1.02 ± 0.054 |
| ACTCTTGTAT | 1.045 ± 0.0058 |
| ACTGAATCCT | 1.08 ± 0.028 |
| ACTGAGCCTG | 1.056 ± 0.0083 |
| ACTGAGGGGG | 1 ± 0.01 |

| Sequence | switch fluorescence ratio |
| --- | --- |
| ACTGCAGAAC | 1.9 ± 0.34 |
| ACTGCCATCG | 1.1 ± 0.023 |
| ACTGGGCCTT | 1.031 ± 0.0083 |
| ACTGGGCGGA | 0.996 ± 0.015 |
| ACTGGGGGAC | 1.04 ± 0.036 |
| ACTGGGGGTG | 1.07 ± 0.086 |
| ACTGGGTTTC | 0.99 ± 0.054 |
| ACTGGTATAG | 1.041 ± 0.0019 |
| ACTGGTTTTG | 1.01 ± 0.022 |
| ACTGTAACGG | 1.19 ± 0.034 |
| ACTGTCGCCA | 1.023 ± 0.0059 |
| ACTGTCTAAT | 1.01 ± 0.026 |
| ACTGTGCTTT | 1.015 ± 0.0097 |
| ACTGTGGAAT | 1.07 ± 0.022 |
| ACTGTGGGGA | 1.01 ± 0.013 |
| ACTGTTTGGA | 0.995 ± 0.0037 |
| ACTTAAAATT | 0.996 ± 0.044 |
| ACTTAATGTA | 1 ± 0.03 |
| ACTTAATTGT | 1.07 ± 0.084 |
| ACTTAGGCGG | 1 ± 0.011 |
| ACTTAGGGGA | 1.02 ± 0.036 |
| ACTTATAATT | 1.02 ± 0.027 |
| ACTTATCGGG | 1 ± 0.029 |

| Sequence | switch fluorescence ratio |
| --- | --- |
| ACTTATTTTT | 1 ± 0.019 |
| ACTTCAAGGA | 1.04 ± 0.069 |
| ACTTCTAACT | 1.07 ± 0.034 |
| ACTTCTCGGT | 0.992 ± 0.017 |
| ACTTCTGGAG | 2.15 ± 0.028 |
| ACTTGAAAAT | 1.002 ± 0.0095 |
| ACTTGATTTT | 1.02 ± 0.015 |
| ACTTGCACTC | 1.34 ± 0.057 |
| ACTTGCCTGT | 1.005 ± 0.01 |
| ACTTGGCAAA | 1.16 ± 0.02 |
| ACTTGGCATC | 1.13 ± 0.043 |
| ACTTGGGCGT | 1.03 ± 0.038 |
| ACTTGGTGTG | 1.01 ± 0.052 |
| ACTTGGTTGG | 0.9869 ± 0.00088 |
| ACTTGTAGCT | 1.02 ± 0.011 |
| ACTTGTCGCG | 1.02 ± 0.033 |
| ACTTGTGGGC | 0.973 ± 0.045 |
| ACTTTATCTT | 1.063 ± 0.01 |
| ACTTTATTTC | 1.011 ± 0.006 |
| ACTTTCGGGA | 0.995 ± 0.011 |
| ACTTTCTGGA | 1 ± 0.024 |
| ACTTTCTTAC | 1.12 ± 0.017 |
| ACTTTGAATG | 1.02 ± 0.027 |

| Sequence | switch fluorescence ratio |
| --- | --- |
| ACTTTGATGT | 1.01 ± 0.012 |
| ACTTTGGTTA | 1.04 ± 0.042 |
| ACTTTGTCTG | 0.991 ± 0.041 |
| ACTTTTAGTT | 1.05 ± 0.018 |
| ACTTTTGACT | 0.982 ± 0.022 |
| AGAAACAGGA | 1.04 ± 0.04 |
| AGAAAGGCGG | 0.9715 ± 0.0027 |
| AGAAAGGGGT | 1.01 ± 0.055 |
| AGAAAGTGGT | 0.992 ± 0.017 |
| AGAAATTCAT | 0.992 ± 0.029 |
| AGAAATTGGA | 1.02 ± 0.044 |
| AGAAATTTGG | 1.01 ± 0.02 |
| AGAACATAGA | 0.986 ± 0.0025 |
| AGAACCGTGT | 0.989 ± 0.041 |
| AGAACGTCTA | 1 ± 0.054 |
| AGAAGAGCTT | 1.011 ± 0.0024 |
| AGAAGAGTTT | 0.95 ± 0.018 |
| AGAAGATTGA | 0.999 ± 0.019 |
| AGAAGGGTAT | 0.976 ± 0.017 |
| AGAAGGTGGG | 1.01 ± 0.021 |
| AGAAGGTTTG | 0.963 ± 0.01 |
| AGAAGTACGT | 1.04 ± 0.013 |
| AGAAGTCGGA | 1 ± 0.011 |

| Sequence | switch fluorescence ratio |
| --- | --- |
| AGAAGTGGAG | 1.004 ± 0.01 |
| AGAAGTTGAG | 0.984 ± 0.01 |
| AGAAGTTTCG | 1.011 ± 0.0068 |
| AGAATATGGG | 0.994 ± 0.011 |
| AGAATATGTT | 0.983 ± 0.014 |
| AGAATCACTG | 1.08 ± 0.04 |
| AGAATGATCG | 0.994 ± 0.033 |
| AGAATGATTG | 0.988 ± 0.017 |
| AGAATGGGTT | 1.03 ± 0.029 |
| AGAATTCCGT | 0.992 ± 0.01 |
| AGAATTTCAT | 1.01 ± 0.0045 |
| AGAATTTGTT | 1 ± 0.024 |
| AGACAAAAAT | 1.026 ± 0.0065 |
| AGACACGTTA | 1.28 ± 0.017 |
| AGACAGGGGG | 1.11 ± 0.2 |
| AGACATTCCT | 1.3 ± 0.34 |
| AGACCTCTTT | 0.988 ± 0.02 |
| AGACGAGGCT | 1.01 ± 0.021 |
| AGACGGGGGC | 0.978 ± 0.12 |
